The values below are quoted from earlier work in paper PMC4484741.

Where two headings read alike, the source gives them in different places.

The target in data set [1] is GLP-1 receptor (UniProt P43220).
For data set [2] the target is unchanged. This is another data set of the same source.

GLP-1 receptor, sequence (P43220 24-463): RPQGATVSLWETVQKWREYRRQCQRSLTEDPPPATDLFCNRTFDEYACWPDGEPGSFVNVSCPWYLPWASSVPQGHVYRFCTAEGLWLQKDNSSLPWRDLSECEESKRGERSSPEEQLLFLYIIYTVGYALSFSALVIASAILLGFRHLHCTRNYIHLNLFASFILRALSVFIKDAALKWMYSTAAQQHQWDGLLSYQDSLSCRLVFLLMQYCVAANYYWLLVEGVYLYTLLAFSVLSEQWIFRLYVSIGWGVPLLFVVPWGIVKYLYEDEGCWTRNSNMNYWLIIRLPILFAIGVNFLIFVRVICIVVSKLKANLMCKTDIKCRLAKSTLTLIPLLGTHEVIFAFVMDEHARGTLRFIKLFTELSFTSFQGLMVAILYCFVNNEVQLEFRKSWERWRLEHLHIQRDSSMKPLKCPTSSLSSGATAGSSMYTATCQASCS
Exendin (9-39) 9-39, sequence (P26349 56-86): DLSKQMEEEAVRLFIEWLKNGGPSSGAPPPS
Exendin-4, sequence (P26349 48-86): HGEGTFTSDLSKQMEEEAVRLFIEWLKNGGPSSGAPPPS

For “Exendin (9-39) 9-39 (from UniProt P26349)”, the Kd (commonly a measure of binding affinity in units of concentration) with GLP-1 receptor [1] was 3 nM. On to Exendin-4 (from UniProt P26349), for which, in the data set with GLP-1 receptor [2], the Kd was 0.14 nM.
